The supplement of paper PMC5998384

Experiments:
HeLa Kyoto [1] = test: solubility in G1/S (NP-40 vs SDS abundance) (log2 ratio); higher = more soluble; details: cell cycle stage: G1/S
HeLa Kyoto [2] = test: melting temperature (median over replicates), in situ; higher = more thermally stable
HeLa Kyoto [3] = test: solubility change mitosis vs G1/S (difference of NP-40 vs SDS log2 ratios) (log2 ratio difference); higher = more soluble in mitosis
HeLa Kyoto [4] = test: thermal stability score vs G1/S (z-score of summed log2 fold changes over temperatures); higher = more thermally stable than in G1/S
[5] = cell cycle stage: early G1 (4.5 h after nocodazole release)
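Wherever melting temperature (median over replicates), in situ is given: HeLa Kyoto cells synchronized by double thymidine or nocodazole block, proteins quantified by TMT10plex mass spectrometry, three independent biological replicates.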
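Wherever solubility change mitosis vs G1/S (difference of NP-40 vs SDS log2 ratios) is given: synchronized HeLa Kyoto cells (double thymidine block for G1/S, nocodazole release for mitosis), protein amounts in NP-40 versus SDS lysates quantified by mass spectrometry, three biological replicates.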
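Wherever solubility in G1/S (NP-40 vs SDS abundance) is given: HeLa Kyoto cells arrested at G1/S by double thymidine block, proteins quantified by TMT10plex mass spectrometry in mild NP-40 versus SDS extracts, three biological replicates.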
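Wherever thermal stability score vs G1/S (z-score of summed log2 fold changes over temperatures) is given: synchronized HeLa Kyoto cells, proteins quantified by TMT10plex mass spectrometry, three biological replicates, mitosis taken 0.5 h after nocodazole release, G1/S directly after double thymidine block.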

Substance	solubility in G1/S (log2) (HeLa Kyoto [1])	melting temperature (HeLa Kyoto [2]; cell cycle stage: G1/S) [°C]	melting temperature (HeLa Kyoto [2]; cell cycle stage: mitosis) [°C]	solubility change mitosis (log2) (HeLa Kyoto [3])	thermal stability score (HeLa Kyoto [4]; [5])	thermal stability score (HeLa Kyoto [4]; cell cycle stage: mitosis)
MPFAEDKTYKYICRNFSNFCNVDVVEILPYLPCLTARDQDRLRATCTLSGNRDTLWHLFNTLQRRPGWVEYFIAALRGCELVDLADEVASVYQSYQPRTSDRPPDPLEPPSLPAERPGPPTPAAAHSIPYNSCREKEPSYPMPVQETQAPESPGENSEQALQTLSPRAIPRNPDGGPLESSSDLAALSPLTSSGHQEQDTELGSTHTAGATSSLTPSRGPVSPSVSFQPLARSTPRASRLPGPTGSVVSTGTSFSSSSPGLASAGAAEGKQGAESDQAEPIICSSGAEAPANSLPSKVPTTLMPVNTVALKVPANPASVSTVPSKLPTSSKPPGAVPSNALTNPAPSKLPINSTRAGMVPSKVPTSMVLTKVSASTVPTDGSSRNEETPAAPTPAGATGGSSAWLDSSSENRGLGSELSKPGVLASQVDSPFSGCFEDLAISASTSLGMGPCHGPEENEYKSEGTFGIHVAENPSIQLLEGNPGPPADPDGGPRPQADRKFQEREVPCHRPSPGALWLQVAVTGVLVVTLLVVLYRRRLH [MAVS]	0.462	54.2	54.4	-0.239	-0.897	-0.611
MATAALLRGATPGRGGPVWRWRLRAAPRCRLAHSSCSPGGDPTAGAAWACFRLDGRTLLRVRGPDAAPFLLGLLTNELPLPSPAAAGAPPAARAGYAHFLNVQGRTLYDVILYGLQEHSEVSGFLLECDSSVQGALQKHLALYRIRRKVTVEPHPELRVWAVLPSSPEACGAASLQERAGAAAILIRDPRTARMGWRLLTQDEGPALVPGGRLGDLWDYHQHRYLQGVPEGVRDLPPGVALPLESNLAFMNGVSFTKGCYIGQELTARTHHMGVIRKRLFPVRFLDPLPTSGITPGATVLTASGQTVGKFRAGQGNVGLALLWSEKIKGPLHIRASEGAQVALAASVPDWWPTVSK [IBA57]	-0.246	52.8	52.4	0.132	0.0549	-0.552
MVVFGYEAGTKPRDSGVVPVGTEEAPKVFKMAASMHGQPSPSLEDAKLRRPMVIEIIEKNFDYLRKEMTQNIYQMATFGTTAGFSGIFSNFLFRRCFKVKHDALKTYASLATLPFLSTVVTDKLFVIDALYSDNISKENCVFRSSLIGIVCGVFYPSSLAFTKNGRLATKYHTVPLPPKGRVLIHWMTLCQTQMKLMAIPLVFQIMFGILNGLYHYAVFEETLEKTIHEE [TMEM126B]	-0.0998	55.9	53.5	0.00498	0.469	-1.3
MPLGLGRRKKAPPLVENEEAEPGRGGLGVGEPGPLGGGGSGGPQMGLPPPPPALRPRLVFHTQLAHGSPTGRIEGFTNVKELYGKIAEAFRLPTAEVMFCTLNTHKVDMDKLLGGQIGLEDFIFAHVKGQRKEVEVFKSEDALGLTITDNGAGYAFIKRIKEGSVIDHIHLISVGDMIEAINGQSLLGCRHYEVARLLKELPRGRTFTLKLTEPRKAFDMISQRSAGGRPGSGPQLGTGRGTLRLRSRGPATVEDLPSAFEEKAIEKVDDLLESYMGIRDTELAATMVELGKDKRNPDELAEALDERLGDFAFPDEFVFDVWGAIGDAKVGRY [GIPC1]	0.314	49.5	48.7	-0.156	-0.363	1.49
XPNPEP3	0.275	53.4	53.3	-0.146	-0.645	-2.12
